Measurements taken from the supplement of paper PMC10567573.

B1: ZNF263 (parent)
chain: RTHTGEKPYKCTLCGENFSHRSNL

Variants of: B1
Assay: protein stability index of a GFP-peptide fusion (GPS, HEK-293T) (PSI 1-6); higher = more stable
Details: c terminus: a fixed tail appended
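Note: lentivirally expressed fusions sorted by FACS into six bins by GFP to DsRed ratio, PSI derived from sequencing read proportions per bin multiplied by bin number.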

| Variant | protein stability index |
| --- | --- |
| RTHTGEKPYKCPLCGENFSHRSNL [T12P] | 2.4 |
| RTHTGEKPYKCQLCGENFSHRSNL [T12Q] | 2.04 |
| RTHTGEKPYKCCLCGENFSHRSNL [T12C] | 1.84 |
| RTHTGEKPYKCMLCGENFSHRSNL [T12M] | 1.43 |
| RTHTGEKPYKCHLCGENFSHRSNL [T12H] | 1.68 |
| RTHTGEKPYKCTLRGENFSHRSNL [C14R] | 3.17 |
| RTHTGEKPYKCTLVGENFSHRSNL [C14V] | 3.3 |
| RTHTGEKPYKCTLYGENFSHRSNL [C14Y] | 2.52 |
| RTHTGEKPYKCTLLGENFSHRSNL [C14L] | 2.73 |
| RTHTGEKPYKCTLDGENFSHRSNL [C14D] | 2.96 |
| RTHTGEAPYKCTLCGENFSHRSNL [K7A] | 2.04 |
| RTHTGEGPYKCTLCGENFSHRSNL [K7G] | 2.31 |
| RTHTGENPYKCTLCGENFSHRSNL [K7N] | 1.9 |
| RTHTGEQPYKCTLCGENFSHRSNL [K7Q] | 1.71 |
| RTHTGEKKYKCTLCGENFSHRSNL [P8K] | 2.06 |
| RTHTGEKEYKCTLCGENFSHRSNL [P8E] | 2.82 |
| RTHTGEKFYKCTLCGENFSHRSNL [P8F] | 1.38 |
| RTHTGEKPYKCTLCGENFSHRSNN [L24N] | 2.37 |
| RTHTGEKPYKCTLCGENFSHRSNE [L24E] | 2.43 |
| RTHTGEKPYKCTLCGENFSHRSNA [L24A] | 2.3 |
| RTHTGEKPYKCTLCGENFSHRSNF [L24F] | 1.59 |
| RTHTGEKPYKCTLCGENFSHRSNP [L24P] | 2.33 |
| RTHTGEKPYKCTLCGENFSHRGNL [S22G] | 2.14 |
| RTHTGEKPYKCTLCGENFSHRTNL [S22T] | 1.92 |

| Variant | protein stability index |
| --- | --- |
| RTHTGEKPYKCTLCGENFSHRMNL [S22M] | 2 |
| RTHTGEKPYKCTLCGENFSHRDNL [S22D] | 2.11 |
| RTHTGEKPYKCTLCGENFSHRFNL [S22F] | 2 |
| RTHTGEKPYKCTLCGENSSHRSNL [F18S] | 2.37 |
| RTHTGEKPYKCTLCGENPSHRSNL [F18P] | 2.19 |
| RTHTGEKPYKNTLCGENFSHRSNL [C11N] | 3.16 |
| RTHTGEKPYKDTLCGENFSHRSNL [C11D] | 3.87 |
| RTHTGEKPYKYTLCGENFSHRSNL [C11Y] | 2.42 |
| RTHTGEKPYKTTLCGENFSHRSNL [C11T] | 2.91 |
| RTHTGEKPYKCTLCGENFSHASNL [R21A] | 2.59 |
| RTHTGEKPYKCTLCGENFSHISNL [R21I] | 1.92 |
| RTHTGEKPYKCTLCGENFSHSSNL [R21S] | 1.96 |
| RTHTGEKPYKCTLCGENFSHLSNL [R21L] | 1.64 |
| RTHTGEKPYKCTLCGENFSHYSNL [R21Y] | 1.96 |
| RCHTGEKPYKCTLCGENFSHRSNL [T2C] | 2.07 |
| RFHTGEKPYKCTLCGENFSHRSNL [T2F] | 1.73 |
| RPHTGEKPYKCTLCGENFSHRSNL [T2P] | 2.34 |
| RRHTGEKPYKCTLCGENFSHRSNL [T2R] | 3.06 |
| RDHTGEKPYKCTLCGENFSHRSNL [T2D] | 2 |
| RTHTGEKPYKCTLCGECFSHRSNL [N17C] | 2.25 |
| RTHTGEKPYKCTLCGEGFSHRSNL [N17G] | 2.12 |
| RTHTGEKPYKCTLCGEKFSHRSNL [N17K] | 2.26 |
| RTHTGEKPYKCTLCMENFSHRSNL [G15M] | 1.9 |
| RTHTGEKPYKCTLCKENFSHRSNL [G15K] | 2.13 |

| Variant | protein stability index |
| --- | --- |
| RTHTGEKPYKCTLCEENFSHRSNL [G15E] | 1.76 |
| RTHTGEKPYKCTLCHENFSHRSNL [G15H] | 2.23 |
| RTHTGEKPYKCTLCGGNFSHRSNL [E16G] | 1.68 |
| RTHTGEKPYKCTLCGQNFSHRSNL [E16Q] | 2.46 |
| RTHTGEKPYKCTLCGCNFSHRSNL [E16C] | 1.98 |
| RTHTGEKPYKCTLCGNNFSHRSNL [E16N] | 1.77 |
| RTHTGEKPYKCTLCGWNFSHRSNL [E16W] | 1.77 |
| RTNTGEKPYKCTLCGENFSHRSNL [H3N] | 1.97 |
| RTWTGEKPYKCTLCGENFSHRSNL [H3W] | 1.41 |
| RTDTGEKPYKCTLCGENFSHRSNL [H3D] | 2.06 |
| RTATGEKPYKCTLCGENFSHRSNL [H3A] | 2.27 |
| RTLTGEKPYKCTLCGENFSHRSNL [H3L] | 2.35 |
| RTHTGEKPYKCTLCGENFDHRSNL [S19D] | 2.21 |
| RTHTGEKPYKCTLCGENFPHRSNL [S19P] | 1.77 |
| RTHTGEKPYKCTLCGENFLHRSNL [S19L] | 1.81 |
| RTHTGEKPYKCTLCGENFNHRSNL [S19N] | 2.08 |
| RTHTGEKPYKCTLCGENFSIRSNL [H20I] | 2.04 |
| RTHTGEKPYKCTLCGENFSCRSNL [H20C] | 2.03 |
| RTHTGEKPYKCTLCGENFSNRSNL [H20N] | 1.95 |
| NTHTGEKPYKCTLCGENFSHRSNL [R1N] | 1.69 |
| PTHTGEKPYKCTLCGENFSHRSNL [R1P] | 1.98 |
| RTHTGEKPYKCTRCGENFSHRSNL [L13R] | 1.56 |
| RTHTGEKPYKCTACGENFSHRSNL [L13A] | 2.18 |
| RTHTGEKPYKCTLCGENFSHRSKL [N23K] | 2.17 |

| Variant | protein stability index |
| --- | --- |
| RTHTGEKPYKCTLCGENFSHRSWL [N23W] | 2.55 |
| RTHTGEKPYKCTLCGENFSHRSFL [N23F] | 2.23 |
| RTHTGEKPYKCTLCGENFSHRSEL [N23E] | 2.31 |
| RTHTGEKPYKCTLCGENFSHRSHL [N23H] | 1.96 |
| RTHTGEKPYKCTLCGENFSHRSYL [N23Y] | 1.96 |
| RTHTGEKPLKCTLCGENFSHRSNL [Y9L] | 1.79 |
| RTHTGEKPNKCTLCGENFSHRSNL [Y9N] | 2.1 |
| RTHTGEKPFKCTLCGENFSHRSNL [Y9F] | 1.96 |
| RTHTGEKPHKCTLCGENFSHRSNL [Y9H] | 2.61 |
| RTHTGEKPSKCTLCGENFSHRSNL [Y9S] | 2.38 |
| RTHTGEKPEKCTLCGENFSHRSNL [Y9E] | 2.4 |
| RTHTGEKPYWCTLCGENFSHRSNL [K10W] | 2.38 |
| RTHTGEKPYVCTLCGENFSHRSNL [K10V] | 2.05 |
| RTHTGEKPYACTLCGENFSHRSNL [K10A] | 1.75 |
| RTHTGEKPYLCTLCGENFSHRSNL [K10L] | 1.86 |
| RTHTGEKPYGCTLCGENFSHRSNL [K10G] | 2.06 |
| RTHTGEKPYICTLCGENFSHRSNL [K10I] | 1.72 |
| RTHTDEKPYKCTLCGENFSHRSNL [G5D] | 2.05 |
| RTHTFEKPYKCTLCGENFSHRSNL [G5F] | 1.86 |
| RTHTVEKPYKCTLCGENFSHRSNL [G5V] | 1.83 |
| RTHTGTKPYKCTLCGENFSHRSNL [E6T] | 2.26 |
| RTHTGQKPYKCTLCGENFSHRSNL [E6Q] | 2.34 |
